Results on nine molecules are retold here after patent publication US20040053206A1 (DYAX, published 2004).

The target of one assay is human plasmin (human, UniProt P00747 97-810, limits assumed). The experiment in a line: protease inhibition, apparent Ki (Ki,app).
The target of assay [1] is T1, human plasma kallikrein (human, UniProt P03952 20-638). Briefly: protease inhibition, apparent Ki (Ki,app).
Assay [2] deals with porcine pancreatic kallikrein (porcine, UniProt P00752 8-246). The experiment in a line: protease inhibition, apparent Ki (Ki,app).
The next assay has as its target human plasma factor XIa (human, UniProt P03951 19-625). The experiment in a line: protease inhibition, apparent Ki (Ki,app).
The target of assay [3] is T1, human plasma kallikrein. The experiment in a line: comparison of Ki,app values, reference aprotinin.
The target of assay [4] is T1, human plasma kallikrein. Briefly: phage display selection.

T1 sequence (P03952 20-638 limits assumed): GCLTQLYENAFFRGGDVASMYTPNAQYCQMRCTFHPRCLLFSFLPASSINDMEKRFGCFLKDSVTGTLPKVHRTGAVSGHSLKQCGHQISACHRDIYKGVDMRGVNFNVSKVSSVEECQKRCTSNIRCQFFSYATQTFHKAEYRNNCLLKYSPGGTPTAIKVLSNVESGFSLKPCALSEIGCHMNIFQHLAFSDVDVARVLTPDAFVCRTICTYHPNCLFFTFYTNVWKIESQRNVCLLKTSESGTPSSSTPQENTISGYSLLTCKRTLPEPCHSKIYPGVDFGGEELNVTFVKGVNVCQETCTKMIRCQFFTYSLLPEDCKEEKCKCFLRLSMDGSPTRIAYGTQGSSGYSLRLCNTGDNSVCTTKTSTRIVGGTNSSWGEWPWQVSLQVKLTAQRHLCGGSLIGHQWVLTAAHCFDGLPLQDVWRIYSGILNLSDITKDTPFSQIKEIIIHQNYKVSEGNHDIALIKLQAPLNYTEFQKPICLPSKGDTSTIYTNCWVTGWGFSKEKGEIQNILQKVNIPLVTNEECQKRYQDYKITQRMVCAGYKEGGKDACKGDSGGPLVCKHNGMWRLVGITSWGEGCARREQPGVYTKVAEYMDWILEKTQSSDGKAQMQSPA
Sequence of human plasmin (P00747 97-810 limits assumed): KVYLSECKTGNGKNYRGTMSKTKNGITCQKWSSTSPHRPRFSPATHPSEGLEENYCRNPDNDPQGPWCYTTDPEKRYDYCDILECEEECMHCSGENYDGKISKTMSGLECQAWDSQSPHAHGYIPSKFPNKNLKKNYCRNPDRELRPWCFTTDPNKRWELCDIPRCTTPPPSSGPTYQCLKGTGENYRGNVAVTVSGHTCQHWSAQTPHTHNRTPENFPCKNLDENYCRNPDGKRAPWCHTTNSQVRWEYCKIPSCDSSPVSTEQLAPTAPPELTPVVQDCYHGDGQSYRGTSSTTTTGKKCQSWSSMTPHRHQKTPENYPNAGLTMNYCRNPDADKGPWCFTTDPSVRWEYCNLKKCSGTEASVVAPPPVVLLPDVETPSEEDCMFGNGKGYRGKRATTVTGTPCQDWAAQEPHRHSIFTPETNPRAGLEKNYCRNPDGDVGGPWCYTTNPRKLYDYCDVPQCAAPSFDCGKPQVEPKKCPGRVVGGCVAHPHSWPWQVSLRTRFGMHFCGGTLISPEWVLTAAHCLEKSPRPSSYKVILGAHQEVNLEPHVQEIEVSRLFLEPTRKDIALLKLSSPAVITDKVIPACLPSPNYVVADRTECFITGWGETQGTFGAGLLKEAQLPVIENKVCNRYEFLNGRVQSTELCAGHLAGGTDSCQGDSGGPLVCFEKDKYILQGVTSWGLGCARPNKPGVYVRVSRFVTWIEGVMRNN
Sequence of porcine pancreatic kallikrein (P00752 8-246): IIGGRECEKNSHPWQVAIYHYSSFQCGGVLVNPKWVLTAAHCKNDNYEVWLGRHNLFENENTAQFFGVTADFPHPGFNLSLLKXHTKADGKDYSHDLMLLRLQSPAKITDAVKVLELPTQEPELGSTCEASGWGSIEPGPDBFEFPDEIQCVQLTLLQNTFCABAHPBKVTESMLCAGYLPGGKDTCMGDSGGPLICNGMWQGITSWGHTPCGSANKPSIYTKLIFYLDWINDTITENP

B1: PEP-1 KI polypeptide (designed binder)
chain: EAMHSFCAFKADDGPCRAAHPRWFFNIFTRQCEEFIYGGCEGNQNRFESLEECKKMCTRD
notes: also called DX88
B1: the Ki with human plasmin turned out to be 140 nM; with human plasma kallikrein [1] it was 0.044 nM; in assay [2] it was 27000 nM; in the assay with human plasma factor XIa, 10 nM. For the same molecule, the “fold higher affinity (Ki,app) than aprotinin” value with human plasma kallikrein [3] stood at 1000 fold.

B2: KKII/3#6 (designed binder)
chain: MHSFCAFKADDGHCKANHQRFFFNIFTRQCEEFSYGGCGGNQNRFESLEECKKMCTRD
notes: also called LACI(K1) variant
Regarding B2, the binding result in the assay with human plasma kallikrein [4] is “binds”.

B3: KKII/3#9 (designed binder)
chain: MHSFCAFKADDGHCKANHQRFFFNIFTRQCEEFSYGGCGGNQNRFESLEECKKMCTRD
notes: also called LACI(K1) variant
Regarding B3, the binding result with human plasma kallikrein [4] is “binds”.

B4: KKII/3#1 (designed binder)
chain: MHSFCAFKADDGHCKASLPRFFFNIFTRQCEEFIYGGCEGNQNRFESLEECKKMCTRD
notes: also called LACI(K1) variant
Take B4: the binding result with human plasma kallikrein [4] was “binds”.

B5: KKII/3#2 (designed binder)
chain: MHSFCAFKADDGPCKANHLRFFFNIFTRQCEEFSYGGCGGNQNRFESLEECKKMCTRD
notes: also called LACI(K1) variant
Consider B5, for which the binding result with human plasma kallikrein [4] is reported as “binds”.

B6: KKII/3#5 (designed binder)
chain: MHSFCAFKADDGHCKASLPRFFFNIFTRQCEEFIYGGCGGNQNRFESLEECKKMCTRD
notes: also called LACI(K1) variant
As for B6, the binding result with human plasma kallikrein [4] is given as “binds”.

B7: KKII/3#4 (designed binder)
chain: MHSFCAFKADDGHCKANHQRFFFNIFTRQCEQFTYGGCAGNQNRFESLEECKKMCTRD
notes: also called LACI(K1) variant
Take B7: in the assay with human plasma kallikrein [4], the binding result is listed as “binds”.

B8: KKII/3#3 (designed binder)
chain: MHSFCAFKADDGHCKANHQRFFFNIFTRQCEEFTYGGCGGNQNRFESLEECKKMCTRD
notes: also called LACI(K1) variant
For the molecule B8, in the assay with human plasma kallikrein [4], the binding result was “binds”.

B9: KKII/3#10 (designed binder)
chain: MHSFCAFKADDGHCKGAHLRFFFNIFTRQCEEFIYGGCEGNQNRFESLEECKKMCTRD
notes: also called LACI(K1) variant
As for B9, in the assay with human plasma kallikrein [4], the binding result was “binds”.
